{"source": "the DeepSol protein solubility set"}
{"assay": "soluble on expression in E. coli; label from the status in PepcDB or PDB records"}
{"sequence": "MAHHHHHHMCLLSFFSLYPLGSFSSGKSNMDTPPISDDDKEVIDRLFASDVPQSLSRHAVLILHYHRTVFGSMVPSNVLLAGCLLYSCKWLSYPSGNSFLKNYFQGMKTSDIVGLEMVLHGTVRQNFMLVEACLRSEMSEIVRLNDVPHNRERIVLVCLNLVRALYRTRWCLLPETAARGALLVACEMCDVHLKSLPESFNTTMVTCAVDYLRSIFAQSRC", "soluble on expression in E. coli": "not soluble"}
{"sequence": "MAHHHHHHMCLVKLYKRCFVRVPPHCVTVVYETRRNSILASSMEEANNELPQVSHFRPLMYIVSLLLYRSKKLVIVPPTSFFSTFTLPCSVLDESGDGEVVDCTVEDIHVTDGSVRMVMTIRYCIPINELERYLAAVGPTAPNERIALAAAGAARARGAELSVGLIINKSKRDTAFLEPFRAHLSSKLMSESCVKVLDVVVEAAEIADRSLGG", "soluble on expression in E. coli": "not soluble"}
{"sequence": "MAHHHHHHMCSTNQKLACCSGDNVFDTKENENDSYPQMVNKQLPPKVLEPIVQNKIVEVPKEVYLEKIVEVPQIKTVERIVEQIRPVIKYKNVYKTKTVYVEKIKNVDRIIYQEKIVEVPQIKTVEKIVEVPVYVDRERIITAPRYMVVEKVIPVLKTTKKESVMEIPEVNCPNIDITQEVESKEEIQIEDLKENQTTSVVHEKDIQLLNDLNIQKMHSSATLNAEADQDTTADTIQNDNFCSTVSCKFLPMYDNFPKMQYSMCNGFPEREKRFSSINIYKSKEEGFPKIRISKTPQIIQRNCYCNYA", "soluble on expression in E. coli": "not soluble"}
{"sequence": "MAHHHHHHMDAKLEARMASVWEVVSSRHAVEATDLSLIQNVTRALAAMHERVEQQHAELTRWHRQNYKLMCTMVVHVNWREEDHRQLRDELVNVRQQLGRVAVRGDVPLLRPRNGG", "soluble on expression in E. coli": "not soluble"}
{"sequence": "MAHHHHHHMDAVKRHSQSTWPVSMPPLHAGTQEERMTGEEAGSSTKHTEGTNDRREKHRHGPHPGRRLHTSPHTHTHHRSAVSLRVRGFGPPHNKRTHRQQLTTNDKEEKRHTAATVSSSVPRPTGYGHSPAANTQHARSKLSHKVPHAEAGPHPPMTRRLTPCGHTECTDSPIERIRRPSLKAASVIDGP", "soluble on expression in E. coli": "soluble"}
{"sequence": "MAHHHHHHMDEYDYNYATYDIDNFTNNFEDNLINYNQIDFINDNAEINNYSNEYYAYDEDLVEENVSEKRIHNKVLLSNDNEFDNNLINISNEIKTENSNNDTSLLKKRKIINDILLNIKKKMKKNDTLCIICLQNEKKYTFTCCYEYYCSLECFKKHDQQKCRNQNKNEPKISGSHNINMDDIKNSNHQKYEDTYYYQNEEDINKKQNDKVIENTIKLDNENKKNEINNINDMDTTCSNFPNNNLSTSLLNNDNNIPNNNENSESSDDYTDDYDMLTEEQKKKLKEDHTLKILLKNNYVREVFKQFTLSNDKIGYLSHYINDPTIVQVIDHIMKTIDDT", "soluble on expression in E. coli": "not soluble"}
{"sequence": "MAHHHHHHMDKAKTLEVLRGMKFMQRKEEAKRRAAFEVAQRDEIERQLLHPGTGSSGASGGVSDGGSSALRDRGGGGPVRATVLYDDSFPTHAYSLSRRSFTETLGGGGAIPVAAGLGDTDAHLEGSAVESRVSLKDVGEAQASADAALDDSDVASDEEVADLWGGEDAEGELNDPTAASDRRNQGVKRTRDRRGDRNQHACSDGRFIVKPSLRAPKLPRRLQETVAEQKRQRAEEEGDMNM", "soluble on expression in E. coli": "soluble"}
{"sequence": "MAHHHHHHMDKLISNNKLKLSVVLLGGLCSLAYYHLKNKFHLSQFCFSKKWFSEFSIMWPGQAFSLKIKKILYETKSKYQNVLVFESTTYGKVLVLDGVIQLTEKDEFAYHEMMTHVPMTVSKEPKNVLVVGGGDGGIIRELCKYKSVENIDICEIDETVIEVSKIYFKNISCGYEDKRVNVFIEDASKFLENVTNTYDVIIVDSSDPIGPAETLFNQNFYEKIYNALKPNGYCVAQCESLWIHVGTIKNMIGYAKKLFKKVEYANISIPTYPCGCIGILCCSKTDTGLTKPNKKLESKEFADLKYYNYENHSAAFKLPAFLLKEIENI", "soluble on expression in E. coli": "soluble"}
{"sequence": "MAHHHHHHMDKYTKVKNIGKGNMGTCTLARNNEDGKYYVIKQVDLTRMSKKDRQQSLNEARVLSSLRHPNIINYVDSFLARKSDNLCIVMEYAESGDVCTRLKKHYGVNVPERQVVDWLIQLVLSLDYVHQRKILHRDVKTQNIFLTHENLIKLGDFGIARTLANTYDQAQTFVGTPYYLSPELILEQPYDHRSDVWALGVVLYEMLTLKHPFNAKDMKGLLQRILAVHYDPLPTMYSAELRDIVARMLVRDPAGRIKLDEILQIPIVRERIRQWLKEPDVVPQHYVRSLCKHHLLPDFQDEATAMPSTRSAARAAAAMAHEEWRTTSEATSAQTDGDVCARKDTDTRPHVTLGGPFSIPSTAARTAAAVCTSSADEESSDGVRPSIPPLKPYSNLPQLGMASPQLYTPQLPQMHPRVQSNNRASSPSRLFRSPFSTPSVARSAALPISRQQGDPVSQSSPAPLPLQRPIARAKAPTRPYARPYVAQPHLSPSPGYLFAANPRKNPIDARRQQSSRPSGPYLNPLFAAPRQMAPAYRSLVPPLPPPPDIKAMLQRAAAERARR", "soluble on expression in E. coli": "not soluble"}
{"sequence": "MAHHHHHHMDYAAAIKQQAEDLQDELKDLALWQEEVARQHEVNKMKKSATFVTNSVPPIRGTVPSLKEAVLKSAGVVEKEDPVKKQKDKGNELFQSGKLQEAVEAYAVGIDLDPEGPMAHVLYGNRALCYLKLERWSDAERDASSCVRLNRTYAKGYFRRATARKQLGNLKGARTDLEAVLALSPNDVSATNEMSLVTKMIRADRDGAEPVTRKKIVITEVDDDDDEQCVGEGAQDKTASPSVIESNTGRHPNTVGDQVVKNEIAELERFRAAQRDAQEARSRERETKLQYKGRTSSRVEIVEEINNESKEGVVVSSSPLSLNNGVTSASAQECPSRELAAVSTSGAAQRPATFKDKKMNEPVVPRMLKPTVKWTKDTLKAPKSFTEFERVFLDLKDDEELLCFYVSVIPPGSMQVLFGSNMTPDILLGMLKAAGRLSGTSTVSFLKGLCTVKRVRDISLFFDDCEKKVVEEVMDVVVSCGASDEDVSLFRRQLGVI", "soluble on expression in E. coli": "soluble"}
{"sequence": "MAHHHHHHMDYRQKAARLPRSAEEKSRWRRVIIILEHCPLAVVRGKYGFELLAERHRAHHARYKQDPAEWRPDVVHQALLHLMDSPLNRAGMLQVFLRTKKGVVIAVDPRLRVPRHMRLFEKMMVSCLYRMKVRAANGSVSLLRVVKNPVTDHIPANCTLIRVEKDGDAVPDIFAYCATCGTNRHADGSTSENVGTATACSSSAGSDAKEPHFAQKHRDLADAKQFRPFAFIIGGMSKGDVDAPYAPRAQVKSIRLGDRGMSAAAACSVIIHGFEEEWLREDNEAC", "soluble on expression in E. coli": "not soluble"}
{"sequence": "MAHHHHHHMEDNDWTGHHSGDGDQNEGMMLNRMEAVMDEVEKLRNLNGALTLELQLAEKKLVIRHERIETLKHGLRQECAAKQELQRTLEAERVCHQAQLQDARNDALHWRQLYDDLLNNSHTRSRKHNGRHRNEHRSSTPTLEAALTSREPSSLADSPVAMGHGIIVKPIRGGGQKELN", "soluble on expression in E. coli": "soluble"}
{"sequence": "MAHHHHHHMEYMHHIQGVVVLNDSGNRVFVKYYLNEDMKARGVLTTLEKQRALERVIYDAVSAPKRNWAASKDGDIVLHDVHSILFHVWGSITFAIVGDIKENEMVMHTVLRCIVDALQRILKTQDITHKGILEKYDALVLAVDEVIDDGIVLETSAQNVADDVAPFMADAETDTARSALSKVNEYLKENL", "soluble on expression in E. coli": "soluble"}
{"sequence": "MAHHHHHHMFHLWPLRPQPNRKPLGSKVVCWPQRRQIPPAPRQVWISQTRRRGPPCSVKEGEPSWRQGTRPDWPELKRSQRQSTAGRATDLSVDKAIPFGALLPCGEASKQHQQQQPNATGNWHDDADAPKEGLETN", "soluble on expression in E. coli": "soluble"}
{"sequence": "MAHHHHHHMFRGRIELIIGPMFAGKTTELMRRVKREIHARRSCFVIKYSKDTRYDEHNVASHDQLMLRAQAAVSQLTEVRDTWKRFDVLAIDEGQFFSDLVDFCNTAADAGKVVMVSALDGDYRRKPFGQICELVPYCEAVDKLTAVCMMCHEQPACFTRRTVNVEQQELIGGADMYIATCRECYSKQQLPSIEEMRTQRMAIKEVEKRYLGLSDKRATASPQTPEKPAGGWCTKAGVATLPTMVKEGAASSGASAGMKSGRGLCEMQAFTTETPKYQRVEPACTASAASSE", "soluble on expression in E. coli": "soluble"}
